One data set deals with T1, HUα (UniProt P0ACF0).
T1 sequence: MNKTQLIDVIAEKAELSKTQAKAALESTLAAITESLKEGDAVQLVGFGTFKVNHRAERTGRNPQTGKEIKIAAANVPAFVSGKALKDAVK
Nature of the data set: EMSA. On the technique in general: In EMSA bound probe runs differently from free probe, usually more slowly.

In a further data set the target is T2, HUβ (UniProt P0ACF4).
T2 sequence: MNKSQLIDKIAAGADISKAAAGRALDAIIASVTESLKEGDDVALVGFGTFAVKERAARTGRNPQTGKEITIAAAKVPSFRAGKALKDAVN
The data set can be described thus: EMSA.

“AAACTGAATTTACGACCACGTAAATGTTTAGGTTGGAAAACACCTTATGAAGTTTACTTCAAAAAA (double strand) [IRR-FAM-NO-IRR]”: the binding signal entry with HUα and with HUβ was “binds more weakly” throughout.

For the sequence “CCCATACTGAATATACACTTGAGAGTATTTATAATTTGTATCTTGAATTGTCAAACCAAGTGCAACGATTTTTTGAAGTAAACTTCATAAGGTGTTTTCCAACCTAAACATTTACGTGGTCGTAAATTCAGTTT (double strand) [IRR-FAM-Long]”, the binding result with HUα and with HUβ was “binds” each time.

Turning to “CTTGAATTGTCAAACCAAGTGCAACGATTTTTTGAAGTAAACTTCATAAGGTGTTTTCCAACCTAAACATTTACGTGGTCGTAAATTCAGTTT (double strand) [IRR-FAM-WT]”, the binding result in the data set with HUα and with HUβ was “binds” each time.

Regarding “GGCAGTCGTTGATAGTGGATGGCGGCTTTATGTTGGCGAATCCACAGTTCAACCCAGAATAGCGCAGTGAGGTGCGTGGATATTTCATTGGGGCTGAATTTACAATCCAAGTGCAACAAAAAAAGAAGTACTCATCAACTAGAATATAATTTTGTTTCCACACAAAAACCATTTCCAAATGATGAGTACTTCCTACCGACATCTTACAATAAACGAGCGAGAAAAGATAATGATTTTACTCGCACAGGGC (double strand) [IRL-FAM-Long (ISApl1 promoter)]”, the binding result with HUα and with HUβ was “binds” each time.

(Values after article PMC10916398.)
